Earlier results as cited in patent publication US10786531B2, “Mineral salt-sulfonic acid compositions and methods of use” (BMG PHARMA SPA, priority 2009, dated 2020).

Details: animal studies

B1: lactoferrin: globular, cationic, non-heme iron-binding protein (protein, UniProt P02788 20-710, looked up)
Lactotransferrin: GRRRSVQWCAVSQPEATKCFQWQRNMRKVRGPPVSCIKRDSPIQCIQAIAENRADAVTLDGGFIYEAGLAPYKLRPVAAEVYGTERQPRTHYYAVAVVKKGGSFQLNELQGLKSCHTGLRRTAGWNVPIGTLRPFLNWTGPPEPIEAAVARFFSASCVPGADKGQFPNLCRLCAGTGENKCAFSSQEPYFSYSGAFKCLRDGAGDVAFIRESTVFEDLSDEAERDEYELLCPDNTRKPVDKFKDCHLARVPSHAVVARSVNGKEDAIWNLLRQAQEKFGKDKSPKFQLFGSPSGQKDLLFKDSAIGFSRVPPRIDSGLYLGSGYFTAIQNLRKSEEEVAARRARVVWCAVGEQELRKCNQWSGLSEGSVTCSSASTTEDCIALVLKGEADAMSLDGGYVYTAGKCGLVPVLAENYKSQQSSDPDPNCVDRPVEGYLAVAVVRRSDTSLTWNSVKGKKSCHTAVDRTAGWNIPMGLLFNQTGSCKFDEYFSQSCAPGSDPRSNLCALCIGDEQGENKCVPNSNERYYGYTGAFRCLAENAGDVAFVKDVTVLQNTDGNNNEAWAKDLKLADFALLCLDGKRKPVTEARSCHLAMAPNHAVVSRMDKVERLKQVLLHQQAKFGRNGSDCPDKFCLFQSETKNLLFNDNTECLARLHGKTTYEKYLGPQYVAGITNLKKCSTSPLLEACEFLRK
  dose well tolerated with minimum toxic effects: 2000 mg/kg/day
